Results from the supplement of paper PMC7877785.
± gives the uncertainty stated by the source.

Assay: self-splicing fitness, log relative to wild type (ln ratio); higher = more splicing; Tetrahymena group I intron in knt gene, E. coli kanamycin selection, DiMSum; sequences stand for … in CUCUCU…GGAGGGAAAAGUUAUCAGGCAUGCACCUGGUAGCUAGUCUUUAAACCAAUAGAUUGCAUCGGUUUAAAAGGCAAGACCGUCAAAUUGCGGGAAAGGGGUCAACAGCCGUUCAGUACCAAGUCUCAGGGGAAACUUUGAGAUGGCCUUGCAAAGGGUAUGGUAAUAAGCUGACGGACAUGGUCCUAACCACGCAGCCAAGUCCUAAGUCAACAGAUCUUCUGUUGAUAUGGAUGCAGUUCACAGACUAAAUGUCGGUCGGGGAAGAUGUAUUCUUCUCAUAAGAUAUAGUCGGACCUCUCCUUAAUGGGAGCUAGCGGAUGAAGUGAUGCAACACUGGAGCCGCUGGGAACUAAUUUGUAUGCGAAAGUAUAUUGAUUAGUUUUGGAGUACUCGUGGUCG
Method in brief: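 A randomised library covering all eight P1ex-region intron nucleotides was built with the intron in the knt kanamycin-resistance gene on pET-22b(+) and held in E. coli BL21(DE3). Cells were grown overnight at 37°C or 30°C on LB agar, with or without 25 μg/mL kanamycin, plus 100 μg/mL carbenicillin, 50 μM IPTG and 0.2% rhamnose, and pooled colonies were amplicon-sequenced on an Illumina HiSeq 2500. DiMSum fitness is the error-weighted combination of wild-type-normalised replicate fold changes, kanamycin versus none.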

Sequence	self-splicing fitness (ln) (30 °C)	self-splicing fitness (ln) (37 °C)
UUAAAGCAAUAUUACGUAUU	-3.28 ± 0.15	-2.75 ± 0.2
GAGGAGCAAUAUUACGAGAU	-2.78 ± 0.32	
CUCCAGCAAUAUUACGCUGC	-3.32 ± 0.15	-2.07 ± 0.21
AUUUAGCAAUAUUACGCAUU	-1.7 ± 0.11	-0.617 ± 0.13
UCUAAGCAAUAUUACGCGGG	-3.14 ± 0.2	-1.41 ± 0.18
CCGAAGCAAUAUUACGGUGG	-4.27 ± 0.24	-1.35 ± 0.11
GUAUAGCAAUAUUACGUUUA	-2.74 ± 0.19	-1.52 ± 0.17
AGCAAGCAAUAUUACGACGG	-2.35 ± 0.16	-0.575 ± 0.13
CUGGAGCAAUAUUACGUUAC	-2.8 ± 0.23	-1.42 ± 0.41
GCUCAGCAAUAUUACGUAUA	-1.73 ± 0.096	-0.338 ± 0.085
UCCCAGCAAUAUUACGCCUC	-3.11 ± 0.23	-1.98 ± 0.29
UGUCAGCAAUAUUACGCCCU	-0.458 ± 0.13	-0.00845 ± 0.19
CUUAAGCAAUAUUACGCAUU	-3.82 ± 0.2	-1.92 ± 0.17
UGUGAGCAAUAUUACGUAGU	-2.87 ± 0.24	-3.06 ± 0.35
ACUGAGCAAUAUUACGGUCU	-2.46 ± 0.12	-1.57 ± 0.16
CUAGAGCAAUAUUACGAGGC	-3.08 ± 0.26	-1.02 ± 0.23
ACAAAGCAAUAUUACGAGUA	-3.03 ± 0.16	-1.7 ± 0.11
CAAAAGCAAUAUUACGACCA	-1.95 ± 0.2	-1.48 ± 0.19
CGAAAGCAAUAUUACGUUAC	-3.15 ± 0.18	-3.01 ± 0.26
CACCAGCAAUAUUACGGAAA	-1.63 ± 0.1	-2.03 ± 0.14
UUGAAGCAAUAUUACGUCUA	0.0429 ± 0.11	0.627 ± 0.12
GCACAGCAAUAUUACGGAUG	-2.18 ± 0.075	-1.61 ± 0.096
CAUCAGCAAUAUUACGUGAG	-0.345 ± 0.055	-0.244 ± 0.073
UGUCAGCAAUAUUACGGCCC	-1.78 ± 0.41	-0.199 ± 0.4
AUUAAGCAAUAUUACGUCUU	-0.854 ± 0.091	-0.387 ± 0.11

Sequence	self-splicing fitness (ln) (30 °C)	self-splicing fitness (ln) (37 °C)
ACGAAGCAAUAUUACGGACC	-0.399 ± 0.17	-0.661 ± 0.26
UACAAGCAAUAUUACGCAUG	-2.07 ± 0.088	-0.74 ± 0.086
GAGCAGCAAUAUUACGCACC	-2.67 ± 0.39	-1.82 ± 0.48
GACGAGCAAUAUUACGCCAA	-3.23 ± 0.28	-0.956 ± 0.3
CUAGAGCAAUAUUACGAGGG	-2.12 ± 0.19	-1.73 ± 0.33
UUCGAGCAAUAUUACGAAUC		-2.97 ± 0.4
UAAGAGCAAUAUUACGUCCU		-2.49 ± 0.45
AAUUAGCAAUAUUACGCUGG	-1.35 ± 0.17	-1.01 ± 0.2
CUGGAGCAAUAUUACGGCCG	-0.999 ± 0.27	
ACUCAGCAAUAUUACGUAUC	-2.28 ± 0.14	-1.66 ± 0.14
GUCUAGCAAUAUUACGGGAG	-1.87 ± 0.17	-0.423 ± 0.11
ACGGAGCAAUAUUACGGGAG	-3.09 ± 0.37	-1.65 ± 0.24
UACAAGCAAUAUUACGAGAC	-3.27 ± 0.43	-1.43 ± 0.23
UGUUAGCAAUAUUACGUUGG	-1.56 ± 0.11	-1.26 ± 0.14
UUAGAGCAAUAUUACGUCAA	-1.59 ± 0.16	-1.15 ± 0.22
CCGGAGCAAUAUUACGCUCG	-3.16 ± 0.28	
CCCCAGCAAUAUUACGUAUU	-3.55 ± 0.16	-3.28 ± 0.28
UCUGAGCAAUAUUACGCAGU	-2.4 ± 0.35	-1.08 ± 0.21
UAUGAGCAAUAUUACGUGGU		-2.75 ± 0.31
CCUUAGCAAUAUUACGGCUG	-3.9 ± 0.19	-2.39 ± 0.17
UAGCAGCAAUAUUACGGAGG	-3.29 ± 0.15	-2.6 ± 0.22
GUGAAGCAAUAUUACGAGAA	-1.97 ± 0.13	-0.33 ± 0.13
AACAAGCAAUAUUACGGUCG	-0.247 ± 0.08	-0.152 ± 0.086
CGUAAGCAAUAUUACGGAAG	-2.64 ± 0.19	-1.41 ± 0.17
UUUAAGCAAUAUUACGUAUA	-1.95 ± 0.12	-1.54 ± 0.14

Sequence	self-splicing fitness (ln) (30 °C)	self-splicing fitness (ln) (37 °C)
CCCUAGCAAUAUUACGGUGA	-2.53 ± 0.11	-1.23 ± 0.094
CUCUAGCAAUAUUACGUACG	-2.5 ± 0.23	-1.4 ± 0.17
GGUGAGCAAUAUUACGAUUU	-1.35 ± 0.23	-0.612 ± 0.25
ACUUAGCAAUAUUACGCAGG	-2.19 ± 0.13	-1.79 ± 0.15
CUCCAGCAAUAUUACGAUAG	-1.6 ± 0.079	-0.825 ± 0.1
CGCGAGCAAUAUUACGACUU		-1.2 ± 0.47
AGUGAGCAAUAUUACGUUAG	-2.97 ± 0.19	-2.03 ± 0.17
UGCCAGCAAUAUUACGGGAA	-1.37 ± 0.092	-0.333 ± 0.1
CCCGAGCAAUAUUACGACAG		-2.46 ± 0.41
GUCUAGCAAUAUUACGGUCC	-2.44 ± 0.15	-1.18 ± 0.13
AUGCAGCAAUAUUACGGUCG	-1.41 ± 0.11	-0.972 ± 0.14
ACACAGCAAUAUUACGUCCA	-1.09 ± 0.089	-0.474 ± 0.096
ACUUAGCAAUAUUACGCUGA	-2.63 ± 0.49	
UAAGAGCAAUAUUACGGCCG	-1.79 ± 0.14	-0.743 ± 0.2
GAGUAGCAAUAUUACGGACA	-1.44 ± 0.087	-0.816 ± 0.082
CAUUAGCAAUAUUACGGCUA	-2.88 ± 0.29	-1.47 ± 0.15
GUCUAGCAAUAUUACGGACG	-0.561 ± 0.15	-0.711 ± 0.2
GGGCAGCAAUAUUACGAACA	-0.951 ± 0.17	-0.607 ± 0.18
CCAAAGCAAUAUUACGAUGA	-2.55 ± 0.12	-1.34 ± 0.09
UGAAAGCAAUAUUACGUAGG	-0.728 ± 0.095	-0.459 ± 0.14
CGAGAGCAAUAUUACGGUCG	-1.42 ± 0.34	-2.28 ± 0.24
CCAGAGCAAUAUUACGCAGU	-3.22 ± 0.13	-3.42 ± 0.21
GAUGAGCAAUAUUACGCAUU		-1.96 ± 0.39
ACUAAGCAAUAUUACGAGAG	-3.17 ± 0.13	-2.52 ± 0.15
AGAUAGCAAUAUUACGGGAU	-1.24 ± 0.19	-1.21 ± 0.16

Sequence	self-splicing fitness (ln) (30 °C)	self-splicing fitness (ln) (37 °C)
GACUAGCAAUAUUACGCUCA	-0.407 ± 0.1	-0.306 ± 0.11
GCUUAGCAAUAUUACGGGAU	-1.56 ± 0.074	-0.453 ± 0.09
CUAUAGCAAUAUUACGCCUU		-2.27 ± 0.39
CCUGAGCAAUAUUACGCUAU	-3.66 ± 0.2	-3.09 ± 0.19
CGUAAGCAAUAUUACGGUUC		-2.59 ± 0.26
AGUCAGCAAUAUUACGGGGA	-3.08 ± 0.19	-1.42 ± 0.18
UGUAAGCAAUAUUACGAAGC	-3.44 ± 0.28	-2.61 ± 0.34
UAGCAGCAAUAUUACGCUAG	-2.94 ± 0.12	-1.96 ± 0.17
UUUCAGCAAUAUUACGCGUC	-3.56 ± 0.15	-2.01 ± 0.14
GCGUAGCAAUAUUACGCGAA		-1.31 ± 0.39
CACAAGCAAUAUUACGCAGU	-3.4 ± 0.2	-2.37 ± 0.16
AUAGAGCAAUAUUACGCUUC	-2.52 ± 0.24	-1.47 ± 0.25
UGGCAGCAAUAUUACGUUGG	-2.33 ± 0.11	-0.227 ± 0.13
CUGGAGCAAUAUUACGUUUU		-3.48 ± 0.42
CGUUAGCAAUAUUACGCGAG	-2.42 ± 0.29	
UUGAAGCAAUAUUACGCUUU	-3.5 ± 0.23	-2.56 ± 0.36
CGGCAGCAAUAUUACGCCAA	-1.61 ± 0.15	-0.921 ± 0.13
GAAGAGCAAUAUUACGGCGU	-1.48 ± 0.1	-0.224 ± 0.12
CGUUAGCAAUAUUACGUUAC	-2.82 ± 0.32	-2.83 ± 0.43
ACAUAGCAAUAUUACGGAUG	-1.77 ± 0.12	-1.6 ± 0.14
AUUCAGCAAUAUUACGUCCA	-1.19 ± 0.17	-1.55 ± 0.23
CUGGAGCAAUAUUACGAGAC		-0.723 ± 0.29
UGGCAGCAAUAUUACGCCUA	-0.238 ± 0.21	0.697 ± 0.42
ACCUAGCAAUAUUACGCUUC	-1.2 ± 0.1	-1.1 ± 0.11
CAGAAGCAAUAUUACGCCUC		-0.543 ± 0.28
